The values that follow come from the supplement of paper PMC9112550, “Optimization of the antimicrobial peptide Bac7 by deep mutational scanning” (BMC Biology, 2022).
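Also: peptides expressed intracellularly from a pBAD plasmid library in pooled LB shake-flask culture, induced with 0.3% L-arabinose, DNA abundance read by NGS, three biological replicates, DESeq2 with apeglm shrinkage.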

The data set has as its system Escherichia coli TOP10. In words: shrunken log2 fold change of peptide-encoding DNA abundance (4.5 h post-induction vs induction); higher = less antimicrobial activity (less host growth inhibition). The following applies: time post-induction: 4.5 h; library: site-saturation at positions 5, 18, 19, 20.
Consider RRIRVRPPRLPRPRPRPVDFPRP, for which the “shrunken log2 fold change” value is -0.289.

As for RRIRFRPPRLPRPRPRPLSYPRP, the “shrunken log2 fold change” value was -0.0166.

For the sequence RRIRLRPPRLPRPRPRPRKKPRP, the “shrunken log2 fold change” value was determined as 0.355.

With RRIRTRPPRLPRPRPRPGWGPRP, the “shrunken log2 fold change” value is 0.343.

For RRIRSRPPRLPRPRPRPEHHPRP, the “shrunken log2 fold change” value was -0.153.

On to RRIRIRPPRLPRPRPRPLGFPRP, for which the “shrunken log2 fold change” value was -0.393.

As for RRIRWRPPRLPRPRPRPIRAPRP, the “shrunken log2 fold change” value is -0.0266.

For RRIRFRPPRLPRPRPRPFIQPRP, the “shrunken log2 fold change” value is -0.707.

As for RRIRCRPPRLPRPRPRPPRAPRP, the “shrunken log2 fold change” value amounted to 0.934.

Regarding RRIRRRPPRLPRPRPRPSIKPRP, the “shrunken log2 fold change” value turned out to be 2.9.

As to RRIRFRPPRLPRPRPRPNITPRP, the “shrunken log2 fold change” value is -0.633.

Take RRIRDRPPRLPRPRPRPPKRPRP: the “shrunken log2 fold change” value is -0.0222.

As for RRIRWRPPRLPRPRPRPHECPRP, the “shrunken log2 fold change” value was -0.0602.

RRIRQRPPRLPRPRPRPIVIPRP: the “shrunken log2 fold change” value came out at 0.0668.

With RRIRMRPPRLPRPRPRPVEIPRP, the “shrunken log2 fold change” value was determined as 0.00438.

For RRIRARPPRLPRPRPRPDWKPRP, the “shrunken log2 fold change” value is -0.108.

RRIRMRPPRLPRPRPRPLWRPRP: the “shrunken log2 fold change” value was determined as 0.704.

For the sequence RRIRRRPPRLPRPRPRPPANPRP, the “shrunken log2 fold change” value was 0.731.

Take RRIRNRPPRLPRPRPRPEHMPRP: the “shrunken log2 fold change” value was -0.0791.

In the case of RRIRTRPPRLPRPRPRPKLSPRP, the “shrunken log2 fold change” value turned out to be 0.197.

As for RRIRSRPPRLPRPRPRPWEFPRP, the “shrunken log2 fold change” value came to 0.236.

As for RRIRKRPPRLPRPRPRPGVQPRP, the “shrunken log2 fold change” value turned out to be 0.228.

As for RRIRARPPRLPRPRPRPHTTPRP, the “shrunken log2 fold change” value is -0.481.

As for RRIRTRPPRLPRPRPRPCERPRP, the “shrunken log2 fold change” value is -0.018.

Consider RRIRERPPRLPRPRPRPCSLPRP, for which the “shrunken log2 fold change” value was -0.264.

For the sequence RRIRKRPPRLPRPRPRPQHNPRP, the “shrunken log2 fold change” value was -0.145.

Regarding RRIRTRPPRLPRPRPRPFCRPRP, the “shrunken log2 fold change” value is -0.0976.

Turning to RRIRDRPPRLPRPRPRPRSRPRP, the “shrunken log2 fold change” value stood at 0.00639.

For RRIRDRPPRLPRPRPRPHASPRP, the “shrunken log2 fold change” value was 0.178.

As to RRIRFRPPRLPRPRPRPHGNPRP, the “shrunken log2 fold change” value is -0.414.

Consider RRIRLRPPRLPRPRPRPQTLPRP, for which the “shrunken log2 fold change” value is -0.0114.

On to RRIRLRPPRLPRPRPRPCGVPRP, for which the “shrunken log2 fold change” value is -0.339.

For RRIRTRPPRLPRPRPRPLKHPRP, the “shrunken log2 fold change” value is -0.315.

RRIRIRPPRLPRPRPRPTKPPRP: the “shrunken log2 fold change” value is -0.0472.

RRIRVRPPRLPRPRPRPDKWPRP: the “shrunken log2 fold change” value was -0.151.

For RRIRHRPPRLPRPRPRPEEAPRP, the “shrunken log2 fold change” value is 0.015.

Turning to RRIRIRPPRLPRPRPRPGQDPRP, the “shrunken log2 fold change” value was -0.165.

On to RRIRPRPPRLPRPRPRPTGIPRP, for which the “shrunken log2 fold change” value was found to be 0.726.

As for RRIRHRPPRLPRPRPRPNWFPRP, the “shrunken log2 fold change” value was -0.0203.

As for RRIRWRPPRLPRPRPRPDQAPRP, the “shrunken log2 fold change” value is 0.11.

As to RRIRRRPPRLPRPRPRPLTLPRP, the “shrunken log2 fold change” value is -0.142.

With RRIRPRPPRLPRPRPRPGQWPRP, the “shrunken log2 fold change” value came out at 0.236.

On to RRIRGRPPRLPRPRPRPRFWPRP, for which the “shrunken log2 fold change” value turned out to be 0.943.

On to RRIRTRPPRLPRPRPRPARPPRP, for which the “shrunken log2 fold change” value came to 0.883.

As to RRIRTRPPRLPRPRPRPGQRPRP, the “shrunken log2 fold change” value came out at 0.118.

As for RRIRLRPPRLPRPRPRPQQHPRP, the “shrunken log2 fold change” value is -0.212.

Regarding RRIRLRPPRLPRPRPRPSGLPRP, the “shrunken log2 fold change” value was -0.429.

Turning to RRIRNRPPRLPRPRPRPTFLPRP, the “shrunken log2 fold change” value is -0.272.

RRIRYRPPRLPRPRPRPVQWPRP: the “shrunken log2 fold change” value was -0.126.

For the sequence RRIRMRPPRLPRPRPRPKQYPRP, the “shrunken log2 fold change” value was 0.146.

With RRIRGRPPRLPRPRPRPQEWPRP, the “shrunken log2 fold change” value turned out to be 0.12.

With RRIRWRPPRLPRPRPRPFWAPRP, the “shrunken log2 fold change” value is 0.274.

For the sequence RRIRDRPPRLPRPRPRPMNYPRP, the “shrunken log2 fold change” value was determined as 0.185.

In the case of RRIRARPPRLPRPRPRPCDPPRP, the “shrunken log2 fold change” value is -0.106.

RRIRPRPPRLPRPRPRPNDDPRP: the “shrunken log2 fold change” value is -0.188.

In the case of RRIRFRPPRLPRPRPRPHMSPRP, the “shrunken log2 fold change” value was 0.0344.

On to RRIRVRPPRLPRPRPRPGCYPRP, for which the “shrunken log2 fold change” value is -0.112.

RRIRFRPPRLPRPRPRPWMAPRP: the “shrunken log2 fold change” value is -0.254.

RRIRMRPPRLPRPRPRPCIVPRP: the “shrunken log2 fold change” value was -0.0122.

In the case of RRIRDRPPRLPRPRPRPSIPPRP, the “shrunken log2 fold change” value was -0.43.

As for RRIRDRPPRLPRPRPRPNRVPRP, the “shrunken log2 fold change” value was -0.023.

On to RRIRSRPPRLPRPRPRPESCPRP, for which the “shrunken log2 fold change” value was 0.181.

Consider RRIRIRPPRLPRPRPRPMKGPRP, for which the “shrunken log2 fold change” value is -0.0335.

RRIRGRPPRLPRPRPRPNIDPRP: the “shrunken log2 fold change” value was 0.644.

For RRIRVRPPRLPRPRPRPNKPPRP, the “shrunken log2 fold change” value is -0.0479.

As for RRIRARPPRLPRPRPRPLDHPRP, the “shrunken log2 fold change” value was determined as 0.267.

For RRIRPRPPRLPRPRPRPDMLPRP, the “shrunken log2 fold change” value is -0.147.

Take RRIRVRPPRLPRPRPRPVPDPRP: the “shrunken log2 fold change” value was -0.103.

Consider RRIRRRPPRLPRPRPRPHSHPRP, for which the “shrunken log2 fold change” value was -0.0882.

Take RRIRARPPRLPRPRPRPNKIPRP: the “shrunken log2 fold change” value is -0.136.

RRIRCRPPRLPRPRPRPEWMPRP: the “shrunken log2 fold change” value is -0.0041.

As to RRIRWRPPRLPRPRPRPNSGPRP, the “shrunken log2 fold change” value stood at 0.0642.

Regarding RRIRHRPPRLPRPRPRPRFSPRP, the “shrunken log2 fold change” value is -0.137.

Consider RRIRCRPPRLPRPRPRPNDVPRP, for which the “shrunken log2 fold change” value was -0.215.

For the sequence RRIRRRPPRLPRPRPRPSNRPRP, the “shrunken log2 fold change” value is -0.0253.

Take RRIRERPPRLPRPRPRPQPSPRP: the “shrunken log2 fold change” value came to 0.0462.

Regarding RRIRYRPPRLPRPRPRPRSGPRP, the “shrunken log2 fold change” value is -0.0667.

RRIRNRPPRLPRPRPRPHPLPRP: the “shrunken log2 fold change” value was -0.122.

On to RRIRNRPPRLPRPRPRPTGTPRP, for which the “shrunken log2 fold change” value came out at 0.0526.

Take RRIRHRPPRLPRPRPRPVIIPRP: the “shrunken log2 fold change” value is -0.248.

In the case of RRIRKRPPRLPRPRPRPKYYPRP, the “shrunken log2 fold change” value is -0.0776.

Take RRIRDRPPRLPRPRPRPHICPRP: the “shrunken log2 fold change” value is -0.205.

As for RRIRWRPPRLPRPRPRPTFVPRP, the “shrunken log2 fold change” value was -0.183.

Consider RRIRSRPPRLPRPRPRPLWCPRP, for which the “shrunken log2 fold change” value came out at 0.148.

On to RRIRPRPPRLPRPRPRPEDRPRP, for which the “shrunken log2 fold change” value was found to be 0.0448.

For the sequence RRIRFRPPRLPRPRPRPYHRPRP, the “shrunken log2 fold change” value is 0.045.

Regarding RRIRQRPPRLPRPRPRPIQKPRP, the “shrunken log2 fold change” value is -0.0187.

For the sequence RRIRCRPPRLPRPRPRPAHPPRP, the “shrunken log2 fold change” value turned out to be 0.125.

Take RRIRCRPPRLPRPRPRPSTQPRP: the “shrunken log2 fold change” value was -0.495.

Take RRIRWRPPRLPRPRPRPVEHPRP: the “shrunken log2 fold change” value was -0.287.

With RRIRPRPPRLPRPRPRPFAKPRP, the “shrunken log2 fold change” value is 0.0716.

Consider RRIRFRPPRLPRPRPRPTDCPRP, for which the “shrunken log2 fold change” value was -0.0151.

Turning to RRIRRRPPRLPRPRPRPRAFPRP, the “shrunken log2 fold change” value came to 0.605.

In the case of RRIRFRPPRLPRPRPRPCWWPRP, the “shrunken log2 fold change” value was determined as 0.696.

As for RRIRIRPPRLPRPRPRPKLLPRP, the “shrunken log2 fold change” value came out at 0.0419.

With RRIRSRPPRLPRPRPRPNSNPRP, the “shrunken log2 fold change” value was -0.857.

With RRIRTRPPRLPRPRPRPMRRPRP, the “shrunken log2 fold change” value amounted to 0.00555.

With RRIRVRPPRLPRPRPRPQLRPRP, the “shrunken log2 fold change” value was found to be 0.0648.

For RRIRIRPPRLPRPRPRPTYQPRP, the “shrunken log2 fold change” value was -0.715.

For the sequence RRIRPRPPRLPRPRPRPSTLPRP, the “shrunken log2 fold change” value is -0.139.

In the case of RRIRKRPPRLPRPRPRPTYGPRP, the “shrunken log2 fold change” value is 0.043.

In the case of RRIRKRPPRLPRPRPRPPQNPRP, the “shrunken log2 fold change” value stood at 0.723.

As for RRIRMRPPRLPRPRPRPMPLPRP, the “shrunken log2 fold change” value came to 0.00106.

In the case of RRIRIRPPRLPRPRPRPQVQPRP, the “shrunken log2 fold change” value is -0.195.

On to RRIRNRPPRLPRPRPRPTMVPRP, for which the “shrunken log2 fold change” value is -0.0433.

In the case of RRIRLRPPRLPRPRPRPHYFPRP, the “shrunken log2 fold change” value was -0.404.

For RRIRLRPPRLPRPRPRPTIPPRP, the “shrunken log2 fold change” value is 0.0895.

Regarding RRIRQRPPRLPRPRPRPKVAPRP, the “shrunken log2 fold change” value is -0.00277.

Take RRIRYRPPRLPRPRPRPIWVPRP: the “shrunken log2 fold change” value was -0.0696.

For RRIRCRPPRLPRPRPRPIWIPRP, the “shrunken log2 fold change” value is -0.291.

On to RRIRARPPRLPRPRPRPNGSPRP, for which the “shrunken log2 fold change” value stood at 0.304.

As for RRIRQRPPRLPRPRPRPMHTPRP, the “shrunken log2 fold change” value is -0.026.

Regarding RRIRTRPPRLPRPRPRPFPIPRP, the “shrunken log2 fold change” value was -1.16.

For the sequence RRIRFRPPRLPRPRPRPRFQPRP, the “shrunken log2 fold change” value was found to be 0.0731.

Take RRIRVRPPRLPRPRPRPDCQPRP: the “shrunken log2 fold change” value is 0.00516.

Consider RRIRSRPPRLPRPRPRPMVMPRP, for which the “shrunken log2 fold change” value turned out to be 0.0113.

RRIRVRPPRLPRPRPRPTPWPRP: the “shrunken log2 fold change” value is 0.294.

Consider RRIRYRPPRLPRPRPRPPAEPRP, for which the “shrunken log2 fold change” value amounted to 0.569.

RRIRARPPRLPRPRPRPCIAPRP: the “shrunken log2 fold change” value was -0.0146.

Consider RRIRERPPRLPRPRPRPFMEPRP, for which the “shrunken log2 fold change” value was -0.00484.

On to RRIRVRPPRLPRPRPRPSKNPRP, for which the “shrunken log2 fold change” value was -0.364.

As for RRIRMRPPRLPRPRPRPDPRPRP, the “shrunken log2 fold change” value is 0.104.

RRIRSRPPRLPRPRPRPMPVPRP: the “shrunken log2 fold change” value was 0.0216.

Turning to RRIRFRPPRLPRPRPRPMEHPRP, the “shrunken log2 fold change” value was -0.416.

As for RRIRTRPPRLPRPRPRPVYMPRP, the “shrunken log2 fold change” value was -0.382.
